From the NTF2 design screens of Basanta et al. (2020)

Assay: protease stability score; higher = more stable; yeast display proteolysis, trypsin and chymotrypsin;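 note: relative to predicted unfolded state with 0 unfolded-like and 1 meaning tenfold more protease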

Sequence	protease stability score
SEDEKVYLKLVEDWIRIWRTGDEDMAEKLADPNVKIIIGDKSTHGREEWTRVVRELRTTEFDAHSITVVDGVVELDGRSRGDINGVEMNSHFTFILYIVDGRLKSQEIEVH	2.03
SEDEKWIRHAIRLLSEALETGDESMEHHLMDPNVKIRIDGVQYIGWEHWKKFVDRFDHEKIEHVHIRHIEVFNGRVDLDGFVHIILFVDGQEIRETRRTRIIVLKYNGKWLIESIEIE	2.3
SEDENILRRVVNILLHVWMTGDEDSLKELIDPHARMDFDGQEVHGREEITRLIRTILHELGIKHFELHRHHIDVQGDKAHIEVDGVDDVDGRKVKVIIRMHVLKVNGRWKTRIVYFERQ	1.65
SEDENLIEEFLRRLMKWHNTGNFDEILNMVDPNTRIIVGDKFHHGRDALRYMWEFLGVDHVRIHVKRQEIIGDKVHNDTELEVNVNGKNLRIKEKLVVIKVNGVWILERIEIQ	1.48
SEDENLIKHVKELLTHRAHTGDERELERLVDPNVKIIVGDKFQIGRELMLETWHRWLEEAGVDQIRLTLHHERIQGDYIILEVTYDVNGREIELTIIHIKVNGKWRLHSMKVR	0.529
SEDEQDAHKWLQLFIDFLKTGDEELMEKFLDPTVRSRVGDKETHGREMLVLHLLFLGVDHIHFRHVEERVYNGRVLLIITILIRVGDKHVETEIRVEIDKINGRWLAETIHIRIR	0.778
SEDEQESRDIIKLLDKSIETGDEKTATRLADPHMRLDIDGVDLHGREEFVRWVIFVVREMRSRVEHTRVRMYDGRAEVDTTLLFIFEGRELRVESHIIMLKIDGRWIIHEVRIH	1.26
SEDEQHLRRMLKVWDTAVKTGDEHLLDRLADPDVRIDINGVELHGREELERMLKQMRIEFEDSDLNHVHIQGDKIHADTEVVVIIIINGREERRRLRIESIVWKVNGRWHFKEFRFK	1.4
SEDEQLAREAIERLLQDFSTGNFERLMEMVDPNVRWEVGDFVSHGRENWSEHFRTYLEKMGFKHVNVRLKHIEVIGNKVIVHSEIIINVDGQELRMQSSSHVVKINGRWVLRSESHL	2.06
SEDEQLRYELAELFFHLISTGDEETIRHYFDPHVLVMIFVNGRNIENHGWEEMTRSLRELRIKDSRLKRVDVYGDYARMDIRVDGEINGVRRDTEVEIRIKWVNGRWKSVNIHIH	2.14
SEDEQQALEIIRQWVEFVRTGDEDSVRRLLDPNVRYEVNGREFHGRELVVRILWEIVYHLGVKHVDNKVEHMEIQGEFVKVETTMILRYNGRTLYIDTRIIIFKIDGRWVFRSIEEK	1.63
SEDEQSLREHIEWIIRALETGDWKKIEKLLDPHTRQDVNGREHIGREEVSRAIVQTFETLGVDHVQLTEIRNINGRLIVHVKMDVNGKILDLELIVTKIDGKWFMESVRLH	1.89
SEDERDAHRAWEIWLKTLETGNEEDMLKLMDPNVRIIIGDKHHHGREELEKILRRYDHIDMEHVHLRHLEVQGEKVIYIGEIHMVFHFNGVTRRLHTEAILILTKVNGRWSQKSLEIK	1.32
SEDERDAHRILDEEFEAIWTGDEHFLRELLDPNVQMDFNGVKLHGRHAFREIFRRFDWVDRIRLEEIRIFNGKVEIHIREDGFIDGRRTNTTSVFFMEKVDGRWKVRKMRIG	1.66
SEDERDAKFATDLVLHLLRTGDEEKLLQLLDPNVRVEQGNKDWHGREDWHDFMEIMGIDHMTIHHVELRVVNGRVESHVDIRLLVNGRDDDVQLVLFMKKVDGRWRVTSLRFIYR	1.74
SEDERDAKMFIDLLNEAMHTGDEQIIKDLVDPHVKIFVGDKIYIGWERYRHMLEEIRIHRWDSEIKRYRVFDGRLEVEGVLHFDVEVNGKRREISTHVELHFDKFDGRWIVREISVH	1.76
SEDERDAKRAEEEFKRHVETGDEKMLREMMDPHVRFEIGDKEFIGWNFAEKLHLDLIERIDHEELILRHINVVNGKVDSDVELRVHVDGVTIIVRTRIISKKIDGRWLIRSIIIH	0.695
SEDERDAQHFIELWDEAMRTGDFELLHYLMDPHTRILVNGRNLHGWEIYHKLLHEIRVKDSRSEDSRVIGDKVRVDQRVHGIVNGVETDLKTHLITEKFNGRWHYRSVEIK	-0.189
SEDERDARELMEIEIRAKRTGDEDTLERLMDPHMRTDINGKELVGREVLEWERKRVDHIHDFRIHHVTSVNGRLDIDASLRLTVDGVEETMRFRILTRKVNGRWIVEFLIVK	0.985
SEDERDARHYLKEFEHAIETGDEHRLDELLDPNVKIDIDGVEHHGREWFRTLEHHIRVHSRVELKHIEVYGNFIVMDGHLHREIRINGRRIETHSRTIIIMRKVNGRWLVSELRFR	1.52
SEDERDARTMTEEITHIIETGDEHRFQELADPNMRLEQGEYHRHGREQVVEFLREVLRELRLKHIHIKDIHVIDGRVIIDVWVHSQYGDKEFTVKVIWIVHKIDGRWIFHSVRIE	1.35
SEDERDIEHAVKVEIKSYETGDEKSWREYVDPHVRIEQGDFLFHGWEDAVKLYAKIKNLTLEVKDMKVYNGRVHSEGVFKFNGQSMETRLIIFKIDGQWIVHSIHIK	1.82
SEDERDIREAFKRWVHNVETGDFESLLKLFDPNVKTTIDGREYHGRDFLVRRLSEMRVHHIEIEHFDIQGDKVNVRGRMDGQIGDKRQDVHFVIHMVKINGRWLLTELTEK	2.23
SEDERDISEVLEEISRIWKTGDEKRFRDLADPNVKMVVNGRELHGRDFAIEAWRKFRELYGIKHIRTVQVNSIDIQGDKVHVDTSMDGQQGEKRTVLRSEIIMLKVDGRWHLESMSFG	1.72
SEDERDMEKASEDMLRNWMTGDFKSLHTLLDPHYRIDIDGQWHHGRDLWVEALRELLHQLGVERVEARERDFKIQGNKLESHIELRYNGRTIETDDLFIKIDGRWFIHSIHLRIR	0.94

Sequence	protease stability score
SEDERDMERFNRLVSHAMETGDEDTLNHLADPNVRVHIGDKDLHGREDYSRWLHELIRRVDYMEVHIHDERLQGDKAIVDSRIRLKFDGVETRIETILYLKKFDGRWRMTTFELK	0.705
SEDERDSEEWAKILIKLLETGDEDELRRLMDPHVRTEVIVNGRTITHHGREDLTEFLRKLGADVIDIERVRVIDGVVHLDSRSKQGEKHVTLHFEALKINGRWITERFHVKFH	1.3
SEDERDSKIAAEINRHWLETGDEEHFKKNVDPHTKVRIGDKEYHGRHFLLHILEHHVKHLWFEVRIEDLRLIGDFVHIDMVLFIRVDGRQETFRIRIIAQKIDGRWVVKHINIE	0.097
SEDEREAIRFLELWVRESRTGDEDSTDRLADPHTRVEFENHHSVGREHAVTFLIHLRTHHFEIHEVQVFNGRIEMRLHVDGIFNGRRYRSDVLLVVLKIDGQWLLHSIRFH	1.52
SEDEREFEEFVRFFFKMMVTGDEDDLIRLLDPHAKFEINGKILHGWRHLLEEIREMGIKHWKIRDIKVQGEKVENELELEVGEKRFHIRLIATKVNGKWHVKEFSIHEI	2.29
SEDEREFLDVLKWLIEAVATGDERIWKELVDPHVRLEVGDKHRHGRETFEKTMRHLRVKEVRVKLHDFDFIGEKMTADVKLEIHLIVGDKERDIRLDIIVHSRKIDGKWHVESIHIR	1.51
SEDERELKHWQTIALRLWKTGDFKSELENLDPHARLHINGVHIIGRERMKEFLERIKNLRVEHLHDEHVHIQGDKITLHGHMDVIINGQRTEVDYEFILLKVNGRWLDHSIEMR	1.1
SEDERFWKKALDDLLDTIRTGDEHKFREMMDPNVRVHIGDKHFHGREQASEQVVRLGVDHIELRRVDFQGDYLEIHGHLRVNGRETRIHFVLLKIDGRWVVKEVRQE	2.21
SEDERFWVERLEEVLRAILTGDEDRIRELADPDVRVRYGDKELHGWKDLHEFMEFFKNVRINVRHVRNQGDKQEVDSEFTFEGRRHETELRLVVINGRVRHIEIIIR	1.41
SEDERLALKMAEVIMHHLSTGDERILESFFDPNVQFIYGDKTNHGMEETLKFWEHIRIEVKSFTWKHITHVDGRLEMHTRSRELFIYGEFKEDRETRVHIIIDKVDGKWNHHSVRFR	0.06
SEDERLAREVIEILHNIMHTGDEHLLDEMLDPNAKVHFDGKDFHGMDVWIKFLIEIRVDSIHVRRVHSINGVLHVDSELDGTINGKKDIRRTRIIMEKVDGRWRVTEVRYV	1.41
SEDERLLREAVEELIHSWETGDFDHVLRMFDPDVRLHFEGRHTHGREVYEQQLRFLWERFKNVRITVEYKHVEVINGKAIVHGKLLLIIGDKTVELTNEIYVRKINGKWLSEEIRIK	1.44
SEDERLMKKLWEDLIRDLITGDEDSMKRLADPNVLVEFENHKEHGRDLFSHLMFHARIKRIHTHEVEIQGDKAVYNVRIDGEINGQRHDYEREIYSFKVNGQWFIERVIIK	1.4
SEDERLVRHALNELLHHIETGDEERLIKLIDPNYRISINGQELHGWEEYVRLIREWRIRRFRVKDVDVQGDKANLDVRTHGDIDGQHHDFTIKIIATKINGRWINEEIIVE	2.4
SEDERQAEEASEQFLRSVETGDFDELSRLFDPDMKVVFNGKELHGRETYIRLERERRRDLGIKHVKVRVKDFRIINGRLHLHTELEFNVGDKSFTHESRYTWEKVNGRWVIRSVDID	2.15
SEDERQSEHMNRLIFESLETGDFHKLMRLMDPHARAVVDGREVHGMELLEEILKRIKDELGVTRIRTRIRTERTQGNKADNITEYEIGDKSFTVIIHNQKIDGRWVIHEVRFE	1.24
SEDERRFREALRIWFQLVRTGDEEELKHFFDPNVRIHIGDKTFHGMELVLRQIVEEAREIRVRSVTIHELDRQGEWIHMDVRIDEEINGRRIHHSVEIIALKINGKWFFHSIIIR	1.4
SEDERVAEELLRLLSEYLKTGDEQIVTELLDPHTKMIIDGQTHIGMDVWQMLRKHIRVKNSDVHDVKFVDGRMHLDMRVHGHVNGVDVTRRLHVHTHKINGRWHIKEIHIE	1.46
SEDERVAFELVVIWSEALITGDEHTSIELLDPNTRIIFNGRDRHGRTFLQEWMKQLRVERIRIHIHHINLQGDKLKVFSELRFVGNVDGVRDEIKTEVVVFLDKIDGRWIVSHIDVH	2.22
SEDERWLELLSRLLIEATRTGDWRELRHMLDPNVQLSFDGVQLHGRETIIEFLRHEERRLGVKHIDLHDRRIEYFDGRVILESELIIHYGDKEHRSEVRVYANKVNGRWFIEHIEIG	2.13
SEDERYAEIADRIVRHSQETGDETDHMRMMDPDVRIEIGDKRYHGRELEHKLLKIWGVTRIEYDVRSIEVQGEKVRIDGVINFNGVELKIILYVLKFNGKWSYTKVEIQ	1.84
SEDESAARHVIERMSHNLMTGDEEDLSDQFDPHVRVDINGVEIIGREELLRWLREWLRHAGVSKFNVHIIPREIRLIGDFMEINGELRMNYNGKEERTETRIIVFKFNGKWSIERMRIH	1.72
SEDETEEHKFHNILSHAWETGDEEVLERLADPHVRFFYNGKEQVGRELMVELLRELLKRLGVDRIEIEIKDVRLQGDKARWHGDNVFNGRRVHVHISLVKVNGRWRIHHLDMG	1.31
SEDETELKRWVERFERSMHTGDEEDLRQMADPNTRFEVGDKEIHGWDLWSKIHRKEREKLGVDNVTTNIKRLEMYGDKLRLESELIFNGQRLEVILIAEKIDGKWVVTSFHIH	0.129
SEDETHFKHMWKLILDTSITGNEELLKTLFDPHYRLSVDGVEFHGREALRYWLDRVDHVEDHRIKSFELQGDKIYMNGESKTQQGDKTHSHDIHIFTKKIDGQWVIHSLHVR	1.16
